Laboratory results published in patent publication US20200157212A1 (Pfizer, published 2020).

T1: Rat ROBO2 on cells (rat, UniProt Q7TPD3 22-1469 (mouse entry))
T1 chain: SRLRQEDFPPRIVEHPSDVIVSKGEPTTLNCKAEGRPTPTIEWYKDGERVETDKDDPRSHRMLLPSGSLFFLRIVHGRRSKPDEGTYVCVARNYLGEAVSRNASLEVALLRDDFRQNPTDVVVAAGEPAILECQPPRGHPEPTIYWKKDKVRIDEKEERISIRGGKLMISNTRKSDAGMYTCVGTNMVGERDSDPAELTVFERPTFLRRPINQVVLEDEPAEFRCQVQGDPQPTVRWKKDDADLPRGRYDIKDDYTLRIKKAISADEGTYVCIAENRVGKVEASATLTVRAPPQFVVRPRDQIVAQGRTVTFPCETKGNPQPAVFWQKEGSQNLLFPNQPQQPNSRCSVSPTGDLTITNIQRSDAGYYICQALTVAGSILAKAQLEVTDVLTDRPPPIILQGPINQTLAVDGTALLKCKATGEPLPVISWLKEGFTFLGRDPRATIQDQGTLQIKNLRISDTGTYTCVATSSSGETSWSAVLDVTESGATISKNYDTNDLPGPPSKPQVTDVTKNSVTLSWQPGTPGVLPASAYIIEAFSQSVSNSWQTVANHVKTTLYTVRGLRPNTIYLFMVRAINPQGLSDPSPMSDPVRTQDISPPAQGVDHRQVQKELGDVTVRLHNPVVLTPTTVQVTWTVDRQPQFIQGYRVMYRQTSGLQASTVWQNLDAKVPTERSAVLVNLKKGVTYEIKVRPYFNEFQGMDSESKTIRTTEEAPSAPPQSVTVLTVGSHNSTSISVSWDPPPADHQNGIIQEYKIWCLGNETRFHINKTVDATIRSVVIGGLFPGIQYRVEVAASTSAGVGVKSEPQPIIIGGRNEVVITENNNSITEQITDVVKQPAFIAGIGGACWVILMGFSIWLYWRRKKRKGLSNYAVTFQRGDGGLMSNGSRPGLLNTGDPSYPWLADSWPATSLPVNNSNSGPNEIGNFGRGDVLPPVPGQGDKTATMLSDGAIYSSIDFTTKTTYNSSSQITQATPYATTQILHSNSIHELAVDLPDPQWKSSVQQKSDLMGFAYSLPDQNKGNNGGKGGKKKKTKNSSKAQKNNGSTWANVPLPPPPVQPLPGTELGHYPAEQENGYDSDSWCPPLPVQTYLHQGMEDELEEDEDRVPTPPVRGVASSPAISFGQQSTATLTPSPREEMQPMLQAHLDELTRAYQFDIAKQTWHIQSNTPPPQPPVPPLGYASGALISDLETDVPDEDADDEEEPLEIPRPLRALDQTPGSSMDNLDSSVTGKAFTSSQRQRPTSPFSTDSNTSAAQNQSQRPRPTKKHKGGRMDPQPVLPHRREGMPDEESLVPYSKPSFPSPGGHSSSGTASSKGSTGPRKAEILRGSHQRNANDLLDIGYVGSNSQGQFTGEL

B1: 93H2 (antibody, human IgG1, kappa, V domains shown)
VH: EVQLVQSGAEVKKPGASVKVSCKASGYTFTGYYMHWVRQAPGQGLEWMGWINPNSGATNFPQKFQGRVTMTRDTSITTAYMDLSRLRSDDTAVYYCARESGDDAFDIWGQGTMVTVSS
VL: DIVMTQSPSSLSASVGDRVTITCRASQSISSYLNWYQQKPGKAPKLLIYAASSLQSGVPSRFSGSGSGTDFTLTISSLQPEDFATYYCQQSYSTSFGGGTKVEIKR
notes: also called parental 93H2; 93H2 mAb
B2: CTIR2-16 (antibody, human IgG1, kappa, V domains shown)
VH: EVQLVQSGAEVKKPGASVKVSCKASGYTFRGYAMHWVRQAPGQGLEWMGWIDPRTGLTKFPQKFQGRVTMTRDTSITTAYMDLSRLRSDDTAVYYCARESGDDAFDIWGQGTMVTVSS
VL: DIVMTQSPSSLSASVGDRVTITCRASQKISSYLNWYQQKPGKAPKLLIYAASSLQYGVPSRFSGSGSGTDFTLTISSLQPEDFATYYCQQSVGLFFGGGTKVEIKR
notes: CDR-shuffled IgG
B3: Abcs55 (antibody, human IgG1, kappa, V domains shown)
VH: EVQLVQSGAEVKKPGASVKVSCKASGYTFTGYYMHWVRQAPGQGLEWMGWINPKDGDTEFPQKFQGRVTMTRDTSITTAYMDLSRLRSDDTAVYYCARESGDDAFDIWGQGTMVTVSS
VL: DIVMTQSPSSLSASVGDRVTITCRASQSISSYLNWYQQKPGKAPKLLIYAASSLQYGVPSRFSGSGSGTDFTLTISSLQPEDFATYYCQQSYSTSFGGGTKVEIKR
notes: chain-shuffled IgG
B4: CTIR2-14 (antibody, human IgG1, kappa, V domains shown)
VH: EVQLVQSGAEVKKPGASVKVSCKASGYTFRGYAMHWVRQAPGQGLEWMGWIDPRTGLTKFPQKFQGRVTMTRDTSITTAYMDLSRLRSDDTAVYYCARESGDDAFDIWGQGTMVTVSS
VL: DIVMTQSPSSLSASVGDRVTITCRASQKISSYLNWYQQKPGKAPKLLIYAASSLQYGVPSRFSGSGSGTDFTLTISSLQPEDFATYYCQQSLELGFGGGTKVEIKR
notes: CDR-shuffled IgG
B5: Abcs20 (antibody, human IgG1, kappa, V domains shown)
VH: EVQLVQSGAEVKKPGASVKVSCKASGYTFTGYYMHWVRQAPGQGLEWMGWINPKNGDTEFPQKFQGRVTMTRDTSITTAYMDLSRLRSDDTAVYYCARESGDDAFDIWGQGTMVTVSS
VL: DIVMTQSPSSLSASVGDRVTITCRASQSISSYLNWYQQKPGKAPKLLIYAASSLQSGVPSRFSGSGSGTDFTLTISSLQPEDFATYYCQQSVGLSFGGGTKVEIKR
notes: chain-shuffled IgG
B6: Abcs40 (antibody, human IgG1, kappa, V domains shown)
VH: EVQLVQSGAEVKKPGASVKVSCKASGYTFTGYYMHWVRQAPGQGLEWMGWINPKDGDTEFPQKFQGRVTMTRDTSITTAYMDLSRLRSDDTAVYYCARESGDDAFDIWGQGTMVTVSS
VL: DIVMTQSPSSLSASVGDRVTITCRASQSISSYLNWYQQKPGKAPKLLIYAASSLQSGVPSRFSGSGSGTDFTLTISSLQPEDFATYYCQQSVGLFFGGGTKVEIKR
notes: chain-shuffled IgG
B7: Abcs35 (antibody, human IgG1, kappa)
heavy: EVQLVQSGAEVKKPGASVKVSCKASGYTFTGYYMHWVRQAPGQGLEWMGWINPKNGDTEFPQKFQGRVTMTRDTSITTAYMDLSRLRSDDTAVYYCARESGDDAFDIWGQGTMVTVSSASTKGPSVFPLAPSSKSTSGGTAALGCLVKDYFPEPVTVSWNSGALTSGVHTFPAVLQSSGLYSLSSVVTVPSSSLGTQTYICNVNHKPSNTKVDKKVEPKSCDKTHTCPPCPAPEAAGAPSVFLFPPKPKDTLMISRTPEVTCVVVDVSHEDPEVKFNWYVDGVEVHNAKTKPREEQYNSTYRVVSVLTVLHQDWLNGKEYKCKVSNKALPAPIEKTISKAKGQPREPQVYTLPPSREEMTKNQVSLTCLVKGFYPSDIAVEWESNGQPENNYKTTPPVLDSDGSFFLYSKLTVDKSRWQQGNVFSCSVMHEALHNHYTQKSLSLSPGK
light: DIVMTQSPSSLSASVGDRVTITCRASQSISSYLNWYQQKPGKAPKLLIYAASSLQSGVPSRFSGSGSGTDFTLTISSLQPEDFATYYCQQSVGLFFGGGTKVEIKRTVAAPSVFIFPPSDEQLKSGTASVVCLLNNFYPREAKVQWKVDNALQSGNSQESVTEQDSKDSTYSLSSTLTLSKADYEKHKVYACEVTHQGLSSPVTKSFNRGEC
notes: fully human IgG1; VH of Ab96 with VL of Ab123
B8: Abcs25 (antibody, human IgG1, kappa, V domains shown)
VH: EVQLVQSGAEVKKPGASVKVSCKASGYTFTGYYMHWVRQAPGQGLEWMGWINPKDGDTEFPQKFQGRVTMTRDTSITTAYMDLSRLRSDDTAVYYCARESGDDAFDIWGQGTMVTVSS
VL: DIVMTQSPSSLSASVGDRVTITCRASQSISSYLNWYQQKPGKAPKLLIYAASSLQSGVPSRFSGSGSGTDFTLTISSLQPEDFATYYCQQSVGLSFGGGTKVEIKR
notes: chain-shuffled IgG
B9: CTIR2-15 (antibody, human IgG1, kappa, V domains shown)
VH: EVQLVQSGAEVKKPGASVKVSCKASGYTFRGYAMHWVRQAPGQGLEWMGWIDPRTGLTKFPQKFQGRVTMTRDTSITTAYMDLSRLRSDDTAVYYCARESGDDAFDIWGQGTMVTVSS
VL: DIVMTQSPSSLSASVGDRVTITCRASQKISSYLNWYQQKPGKAPKLLIYAASSLQYGVPSRFSGSGSGTDFTLTISSLQPEDFATYYCQQSVGLSFGGGTKVEIKR
notes: CDR-shuffled IgG

Molecular target: T1, Rat ROBO2 on cells
Experiment: cell-based or functional assay

In order of rising “IC50 (nM), SVZa assay” value:
1. B9  0.02 nM
2. B7  0.039 nM
3. B4  0.11 nM
4. B6  0.11 nM
5. B8  0.31 nM
6. B2  0.41 nM
7. B5  0.47 nM
8. B3  0.98 nM
9. B1  1.69 nM
